Experimental data: patent US20100120700A1, “METHODS AND COMPOSITIONS FOR TREATING CERVICAL CANCER” (priority 2000, published 2010)
Entries after “also recorded” stand apart in the source; their conditions may differ.

B1: HPV16 E6: recombinant full length HPV16 E6 fusion protein (MBP-E6 or GST-E6) microinjected into Xenopus oocytes (protein)
chain: MHQKRTAMFQDPQERPRKLPQLCTELQTTIHDIILECVYCKQQLLRREVYDFAFRDLCIVYRDGNPYAVCDKCLKFYSKISEYRHYCYSLYGTTLEQQYNKPLCDLLIRCINCQKPLCPEEKQRHLDKKQRFHNIRGRWTGRCMSCCRSSRTRRETQL

Tested on: c-JUN N-terminal kinase (JNK)
Test: Jun kinase assay in microinjected Xenopus oocytes
Format: cell-based
Conditions: Xenopus oocytes, MBP-E6 or GST-E6 protein (100 nM, 3h), GST-Jun phosphorylation
Protocol: Experimental Design: This experiment was divided into two phases. In the first phase, an MBP-E6 fusion protein (HPV16; see example 4) was microinjected into Xenopus oocytes at different concetrations and then the oocytes were assayed for INK activity. In the second phase, peptides corresponding to the C-termini of non-oncogenic E6 protein (HPV11), HPV16 E6 (oncogenic) or Tax (shown to block oncogenic E6 binding to PDZ domains, FIG. 3) were co-injected with an activating amount of MBP-E6 fusion protein to assess ther abilities to block JNK activation.
Isolation and Microinjection of Oocytes—Xenopus ovarian tissue was surgically removed, and oocytes were defolliculated for 1-1.5 h at room temperature with 2 mg/ml collagenase and 0.5 mg/ml polyvinylpyrrolidone in Ca21-free modified Barth's solution (88 mM NaCl, 1 mM KCl, 0.82 mM MgSO4, 2.4 mM NaHCO3, 10 mM HEPES, pH 7.5). The oocytes were then washed four times with modified Barth's solution. Stage VI oocytes were sorted manually and incubated at 16° C. for at least 10 h in OR2 solution (82.5 mM NaCl, 2.5 mM KCl, 1 mM CaCl2, 1 mM Na2HPO4, 5 mM HEPES, pH 7.5) supplemented with 1 mg/ml bovine serum albumin and […] gentamicin. Immature oocytes were microinjected with purified MBP-E6 protein or E6 protein and peptide and transferred to fresh OR2 for the duration of the time course. Five oocytes were collected per time point, frozen on dry ice, and stored at −80° C.
Lysis of Oocytes, Eggs, and Embryos—Frozen oocytes, eggs, and embryos were thawed rapidly and lysed by pipetting up and down in 60 ml of ice-cold extraction buffer (EB) (0.25 M sucrose, 0.1 M NaCl, 2.5 mM MgCl2, 20 mM HEPES, pH 7.2) containing 10 mM EDTA, protease inhibitors (10 mg/ml leupeptin, 10 mg/ml pepstatin, 10 mg/ml aprotinin, 1 mM phenylmethylsulfonyl fluoride), and phosphatase inhibitors (50 mM 2-glycerophosphate, 1 mM sodium orthovanadate, 2 mM microcystin). Samples were clarified by centrifugation for 2.5 min in a Beckman E microcentrifuge with a right angle rotor. Crude cytoplasm was collected and processed for immunoblotting or kinase assays, as described below.
Jun Kinase Assay—Jun kinase assays were performed as described. Crude oocyte, egg, or embryo cytoplasm was diluted 1:1 in EB and pre-cleared with 20 ml of glutathione-Sepharose beads (Amersham Pharmacia Biotech) for 1 h at 4° C. with moderate shaking. Lysates were incubated with glutathione S-transferase GST-c-Jun-(1-79) fusion protein (hereafter denoted GST-Jun) immobilized on glutathione- Sepharose beads. After 3 h at 4° C., the beads were washed three times with 50 mM HEPES, pH 7.5, 150 mM NaCl, 1% Triton X-100, 1 mM EDTA, 10% glycerol, 10 mM sodium pyrophosphate, 2 mM sodium orthovanadate, 10 mM sodium fluoride, 1 mM phenylmethylsulfonyl fluoride, and 10 mg/ml aprotinin (24) and once with 0.4 ml of kinase buffer (20 mM HEPES, pH 7.5, 10 mM MgCl2, 1 mM dithiothreitol, 200 mM sodium orthovanadate). The bound JNK activity was detected by the addition of 1 mCi of [g-32]JATP. The reaction was terminated after 20 min at 30° C., and the products were resolved by SDS-PAGE. The gels were transferred to PVDF membranes (Hybond; Amersham Pharmacia Biotech) and the incorporation of [32P]phosphate into GST-Jun was visualized by autoradiography. […]

Molecule	JNK activation by microinjected E6 fusion protein	JNK activation by microinjected E6 fusion protein (listed as HPV E6 16)
HPV18 E6: recombinant GST-E6 fusion protein of HPV18 microinjected into Xenopus oocytes	activated the JNK MAPK pathway in the oocyte	
B1	activates c-JUN N-terminal kinase; also recorded: activated the JNK MAPK pathway in the oocyte	activates c-JUN N-terminal kinase (JNK)
